Assay results reported in patent US20120329854.

What was measured:
[1] = target: H3K4me1T6ph peptide (H3 tail residues 1-20) (UniProt P68431)
[2] = target: H3K4me2 peptide (H3 tail residues 1-20) (UniProt P68431)
[3] = target: H3K4me2T6ph peptide (H3 tail residues 1-20) (UniProt P68431)
[4] = target: H3K4me1 peptide (H3 tail residues 1-20) (UniProt P68431)
[5] = target: histone H3 in untreated nucleosomes purified from HeLa cells (UniProt P68431)
GST-H3 1-135 T6A = GST-H3 1-135 T6A (UniProt P68431)
GST-H3 1-15 = GST-H3 1-15 (UniProt P68431)
[6] = target: GST-H3 1-135 (full-length histone H3) (UniProt P68431)
GST-H3 16-30 = GST-H3 16-30 (UniProt P68431)
GST H3 1-15 T6A = GST H3 1-15 T6A (UniProt P68431)
GST-H3 29-44 = GST-H3 29-44 (UniProt P68431)

bacterially expressed and purified His-LSD1
demethylation assay, mass spectrometry [1]: demethylation of H3K4me1 by LSD1 is completely abrogated in the presence of phosphorylated T6 | demethylation assay, mass spectrometry [2]: The robust demethylation of H3K4me2 observed in the presence of LSD1 | demethylation assay, mass spectrometry [3]: is completely blocked when the peptides are phosphorylated at T6 | demethylation assay, mass spectrometry [4]: demethylation of H3K4me1 by LSD1

purified recombinant active PKCδ (ProQinase)
phosphorylation of nucleosomes at H3T6 (in vitro kinase assay, Western blot with α-H3T6ph) [5]: only PKCα, 131 and 132 phosphorylate nucleosomes at H3T6 (PKCδ tested, no phosphorylation)

purified recombinant active PKCβI (ProQinase)
phosphorylation in the presence of [γ-32P]ATP (autoradiography) (GST-H3 1-135 T6A): mutation of threonine 6 to alanine in either H3 1-15 (H3 1-15 T6A) or in full length H3 (H3 1-135 T6A) abolishes phosphorylation | phosphorylation in the presence of [γ-32P]ATP (autoradiography) (GST-H3 1-15): only full-length histone H3 (H3 1-135) and a H3 fragment spanning amino acid residues 1 to 15 (H3 1-15), but not H3 16-30 or H3 29-44, are phosphorylated by PKCβI | phosphorylation in the presence of [γ-32P]ATP (autoradiography) [6]: only full-length histone H3 (H3 1-135) and a H3 fragment spanning amino acid residues 1 to 15 (H3 1-15), but not H3 16-30 or H3 29-44, are phosphorylated by PKCβI | phosphorylation in the presence of [γ-32P]ATP (autoradiography) (GST-H3 16-30): but not H3 16-30 or H3 29-44, are phosphorylated by PKCβI | phosphorylation in the presence of [γ-32P]ATP (autoradiography) (GST H3 1-15 T6A): mutation of threonine 6 to alanine in either H3 1-15 (H3 1-15 T6A) or in full length H3 (H3 1-135 T6A) abolishes phosphorylation | phosphorylation of nucleosomes at H3T6 (in vitro kinase assay, Western blot with α-H3T6ph) [5]: only PKCα, 131 and 132 phosphorylate nucleosomes at H3T6 | phosphorylation in the presence of [γ-32P]ATP (autoradiography) (GST-H3 29-44): but not H3 16-30 or H3 29-44, are phosphorylated by PKCβI
